Columns and labels:
[1] = biological target: T1, gD tagged human FcRH2 on SVT2 cells (human, UniProt Q96LA5 20-508); test: FACS, SVT2.MSCV.gD.FcRH2 cells, PE secondary antibody
T1 construct: whole, on cells; also called huFcRH2; not shown: gD tag; the construct for this FcRH is not described
T1 sequence (looked up): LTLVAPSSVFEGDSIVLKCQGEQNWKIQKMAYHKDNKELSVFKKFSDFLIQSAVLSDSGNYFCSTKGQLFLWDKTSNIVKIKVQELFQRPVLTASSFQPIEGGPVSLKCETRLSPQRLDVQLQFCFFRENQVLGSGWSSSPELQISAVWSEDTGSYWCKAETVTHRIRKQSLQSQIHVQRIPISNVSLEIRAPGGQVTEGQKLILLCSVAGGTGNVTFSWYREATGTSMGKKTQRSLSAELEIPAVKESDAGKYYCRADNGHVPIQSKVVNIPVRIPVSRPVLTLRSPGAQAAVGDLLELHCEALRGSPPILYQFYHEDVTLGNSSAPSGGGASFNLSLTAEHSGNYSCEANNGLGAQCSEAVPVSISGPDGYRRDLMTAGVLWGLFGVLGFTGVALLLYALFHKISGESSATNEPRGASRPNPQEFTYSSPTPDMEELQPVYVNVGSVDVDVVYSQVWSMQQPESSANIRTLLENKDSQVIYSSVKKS

[2] = biological target: T2, gD tagged human FcRH4 on SVT2 cells (human, UniProt Q96PJ5 20-515); test: FACS, SVT2.MSCV.gD.FcRH4 cells, PE secondary antibody
T2 construct: whole, on cells; also called huFcRH4; IRTA1; not shown: gD tag; the construct for this FcRH is not described
T2 sequence (looked up): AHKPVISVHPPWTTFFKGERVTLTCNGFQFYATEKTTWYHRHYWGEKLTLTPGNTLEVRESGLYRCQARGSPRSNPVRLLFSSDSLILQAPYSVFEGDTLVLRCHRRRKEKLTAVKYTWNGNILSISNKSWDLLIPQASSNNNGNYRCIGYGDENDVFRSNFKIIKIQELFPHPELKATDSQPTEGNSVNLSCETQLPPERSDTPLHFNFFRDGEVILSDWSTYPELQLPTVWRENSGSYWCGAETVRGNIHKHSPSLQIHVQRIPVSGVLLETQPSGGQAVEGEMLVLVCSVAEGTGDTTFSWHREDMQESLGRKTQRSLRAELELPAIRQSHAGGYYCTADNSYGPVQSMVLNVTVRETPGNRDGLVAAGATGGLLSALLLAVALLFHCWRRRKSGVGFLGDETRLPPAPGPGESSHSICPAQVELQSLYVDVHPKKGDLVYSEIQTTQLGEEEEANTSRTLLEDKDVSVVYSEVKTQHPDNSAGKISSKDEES

[3] = biological target: T3, gD tagged human FcRH3 on SVT2 cells (human, UniProt Q96P31 18-734); test: FACS, SVT2.MSCV.gD.FcRH3 cells, PE secondary antibody
T3 construct: whole, on cells; also called huFcRH3; not shown: gD tag; the construct for this FcRH is not described
T3 sequence (looked up): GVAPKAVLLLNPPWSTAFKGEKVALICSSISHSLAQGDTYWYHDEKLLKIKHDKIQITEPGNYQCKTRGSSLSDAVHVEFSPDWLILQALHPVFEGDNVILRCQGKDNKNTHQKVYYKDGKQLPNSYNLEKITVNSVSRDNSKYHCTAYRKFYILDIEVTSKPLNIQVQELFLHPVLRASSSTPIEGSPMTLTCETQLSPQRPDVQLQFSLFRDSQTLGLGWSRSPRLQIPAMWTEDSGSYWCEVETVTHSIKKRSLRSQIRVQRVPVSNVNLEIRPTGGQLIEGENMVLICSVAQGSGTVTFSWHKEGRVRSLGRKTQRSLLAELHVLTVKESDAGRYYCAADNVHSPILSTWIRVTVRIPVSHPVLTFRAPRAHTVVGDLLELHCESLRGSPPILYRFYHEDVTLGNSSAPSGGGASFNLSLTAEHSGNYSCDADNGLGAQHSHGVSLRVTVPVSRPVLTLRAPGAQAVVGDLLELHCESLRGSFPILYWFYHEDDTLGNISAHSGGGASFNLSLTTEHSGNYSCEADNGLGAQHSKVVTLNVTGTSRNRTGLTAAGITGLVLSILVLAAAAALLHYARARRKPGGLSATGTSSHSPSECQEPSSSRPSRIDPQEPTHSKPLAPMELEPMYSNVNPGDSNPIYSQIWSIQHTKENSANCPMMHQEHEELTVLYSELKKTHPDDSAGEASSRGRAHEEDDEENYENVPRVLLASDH

[4] = biological target: T4, gD tagged human FcRH1 on SVT2 cells (human, UniProt Q96LA6 17-429); test: FACS, SVT2.MSCV.gD.FcRH1 cells, PE secondary antibody
T4 construct: whole, on cells; also called huFcRH1; not shown: gD tag
T4 sequence (looked up): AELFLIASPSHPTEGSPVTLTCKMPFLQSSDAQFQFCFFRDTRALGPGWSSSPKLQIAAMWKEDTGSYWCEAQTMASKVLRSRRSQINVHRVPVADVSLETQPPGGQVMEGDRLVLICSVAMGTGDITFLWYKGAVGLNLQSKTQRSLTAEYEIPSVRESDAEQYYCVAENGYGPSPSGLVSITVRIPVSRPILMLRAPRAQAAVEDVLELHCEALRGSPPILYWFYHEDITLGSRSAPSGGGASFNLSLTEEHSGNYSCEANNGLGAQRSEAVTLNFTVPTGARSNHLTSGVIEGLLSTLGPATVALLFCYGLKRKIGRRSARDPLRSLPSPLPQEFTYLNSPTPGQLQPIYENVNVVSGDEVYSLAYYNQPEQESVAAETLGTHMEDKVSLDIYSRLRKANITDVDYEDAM

B1: murine monoclonal antibody anti-FcRH5-13G9 (antibody, V domains shown)
VH: EVQLVQSGPELKKPGETVKISCKASGYTFTNYGMNWVKQAPGKGLKWMGWVNTYTGEPTYTDDFKGRFAFSVETSASTVFLQINNLKNEDTATYFCARRSIPYYYAMDYWGQGTSLT
VL: DIVMTQSQKIMSTSVGDRVNVTCKASQNVGSNVAWYHQKPGQSPKALIYSASYRYSGVPDRFTGSGSGTDFTLTISNVQSEDLAEYFCQQYKTWTFGGGTKLEIKR
notes: Whole murine IgG from hybridoma; also called 13G9.1.1; mu13G9
- binding result [1]: no binding (tested: 1.0 ug per about 10^6 cells (p-1120))
- binding result [2]: no binding (tested: 1.0 ug per about 10^6 cells (p-1120))
- binding result [3]: no binding (tested: 1.0 ug per about 10^6 cells (p-1120))
- binding result [4]: no binding (tested: 1.0 ug per about 10^6 cells (p-1120))

From US20130089497A1 (Genentech, published 2013)
